Assay results reported in patent US20230013244A1 (BioIncept, LLC, priority 2014, published 2023).

Experiments:
Filamin-A (human) = Filamin-A (human) (UniProt P21333); assay: PIF affinity column + LC-MS/MS, CD14+ cell lysate
[1] = target: Histone-binding protein RBBP7 (human) (UniProt E9PC52); assay: PIF affinity column + LC-MS/MS, CD14+ cell lysate
Histone-binding protein RBBP7 (human), sequence (E9PC52 entry or part of it limits assumed, form in doubt): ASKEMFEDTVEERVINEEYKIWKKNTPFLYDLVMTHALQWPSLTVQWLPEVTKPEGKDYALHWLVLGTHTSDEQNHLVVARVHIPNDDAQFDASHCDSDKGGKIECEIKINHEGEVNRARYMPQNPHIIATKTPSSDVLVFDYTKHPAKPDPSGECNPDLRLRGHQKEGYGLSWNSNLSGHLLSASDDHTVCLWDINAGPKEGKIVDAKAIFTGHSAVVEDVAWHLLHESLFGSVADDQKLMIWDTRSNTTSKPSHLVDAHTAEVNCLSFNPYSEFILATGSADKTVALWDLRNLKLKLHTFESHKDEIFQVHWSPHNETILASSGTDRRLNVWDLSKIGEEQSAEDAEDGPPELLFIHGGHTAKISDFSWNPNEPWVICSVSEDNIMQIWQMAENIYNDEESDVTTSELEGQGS

Filamin-A (human), sequence (P21333 2-2647 limits assumed): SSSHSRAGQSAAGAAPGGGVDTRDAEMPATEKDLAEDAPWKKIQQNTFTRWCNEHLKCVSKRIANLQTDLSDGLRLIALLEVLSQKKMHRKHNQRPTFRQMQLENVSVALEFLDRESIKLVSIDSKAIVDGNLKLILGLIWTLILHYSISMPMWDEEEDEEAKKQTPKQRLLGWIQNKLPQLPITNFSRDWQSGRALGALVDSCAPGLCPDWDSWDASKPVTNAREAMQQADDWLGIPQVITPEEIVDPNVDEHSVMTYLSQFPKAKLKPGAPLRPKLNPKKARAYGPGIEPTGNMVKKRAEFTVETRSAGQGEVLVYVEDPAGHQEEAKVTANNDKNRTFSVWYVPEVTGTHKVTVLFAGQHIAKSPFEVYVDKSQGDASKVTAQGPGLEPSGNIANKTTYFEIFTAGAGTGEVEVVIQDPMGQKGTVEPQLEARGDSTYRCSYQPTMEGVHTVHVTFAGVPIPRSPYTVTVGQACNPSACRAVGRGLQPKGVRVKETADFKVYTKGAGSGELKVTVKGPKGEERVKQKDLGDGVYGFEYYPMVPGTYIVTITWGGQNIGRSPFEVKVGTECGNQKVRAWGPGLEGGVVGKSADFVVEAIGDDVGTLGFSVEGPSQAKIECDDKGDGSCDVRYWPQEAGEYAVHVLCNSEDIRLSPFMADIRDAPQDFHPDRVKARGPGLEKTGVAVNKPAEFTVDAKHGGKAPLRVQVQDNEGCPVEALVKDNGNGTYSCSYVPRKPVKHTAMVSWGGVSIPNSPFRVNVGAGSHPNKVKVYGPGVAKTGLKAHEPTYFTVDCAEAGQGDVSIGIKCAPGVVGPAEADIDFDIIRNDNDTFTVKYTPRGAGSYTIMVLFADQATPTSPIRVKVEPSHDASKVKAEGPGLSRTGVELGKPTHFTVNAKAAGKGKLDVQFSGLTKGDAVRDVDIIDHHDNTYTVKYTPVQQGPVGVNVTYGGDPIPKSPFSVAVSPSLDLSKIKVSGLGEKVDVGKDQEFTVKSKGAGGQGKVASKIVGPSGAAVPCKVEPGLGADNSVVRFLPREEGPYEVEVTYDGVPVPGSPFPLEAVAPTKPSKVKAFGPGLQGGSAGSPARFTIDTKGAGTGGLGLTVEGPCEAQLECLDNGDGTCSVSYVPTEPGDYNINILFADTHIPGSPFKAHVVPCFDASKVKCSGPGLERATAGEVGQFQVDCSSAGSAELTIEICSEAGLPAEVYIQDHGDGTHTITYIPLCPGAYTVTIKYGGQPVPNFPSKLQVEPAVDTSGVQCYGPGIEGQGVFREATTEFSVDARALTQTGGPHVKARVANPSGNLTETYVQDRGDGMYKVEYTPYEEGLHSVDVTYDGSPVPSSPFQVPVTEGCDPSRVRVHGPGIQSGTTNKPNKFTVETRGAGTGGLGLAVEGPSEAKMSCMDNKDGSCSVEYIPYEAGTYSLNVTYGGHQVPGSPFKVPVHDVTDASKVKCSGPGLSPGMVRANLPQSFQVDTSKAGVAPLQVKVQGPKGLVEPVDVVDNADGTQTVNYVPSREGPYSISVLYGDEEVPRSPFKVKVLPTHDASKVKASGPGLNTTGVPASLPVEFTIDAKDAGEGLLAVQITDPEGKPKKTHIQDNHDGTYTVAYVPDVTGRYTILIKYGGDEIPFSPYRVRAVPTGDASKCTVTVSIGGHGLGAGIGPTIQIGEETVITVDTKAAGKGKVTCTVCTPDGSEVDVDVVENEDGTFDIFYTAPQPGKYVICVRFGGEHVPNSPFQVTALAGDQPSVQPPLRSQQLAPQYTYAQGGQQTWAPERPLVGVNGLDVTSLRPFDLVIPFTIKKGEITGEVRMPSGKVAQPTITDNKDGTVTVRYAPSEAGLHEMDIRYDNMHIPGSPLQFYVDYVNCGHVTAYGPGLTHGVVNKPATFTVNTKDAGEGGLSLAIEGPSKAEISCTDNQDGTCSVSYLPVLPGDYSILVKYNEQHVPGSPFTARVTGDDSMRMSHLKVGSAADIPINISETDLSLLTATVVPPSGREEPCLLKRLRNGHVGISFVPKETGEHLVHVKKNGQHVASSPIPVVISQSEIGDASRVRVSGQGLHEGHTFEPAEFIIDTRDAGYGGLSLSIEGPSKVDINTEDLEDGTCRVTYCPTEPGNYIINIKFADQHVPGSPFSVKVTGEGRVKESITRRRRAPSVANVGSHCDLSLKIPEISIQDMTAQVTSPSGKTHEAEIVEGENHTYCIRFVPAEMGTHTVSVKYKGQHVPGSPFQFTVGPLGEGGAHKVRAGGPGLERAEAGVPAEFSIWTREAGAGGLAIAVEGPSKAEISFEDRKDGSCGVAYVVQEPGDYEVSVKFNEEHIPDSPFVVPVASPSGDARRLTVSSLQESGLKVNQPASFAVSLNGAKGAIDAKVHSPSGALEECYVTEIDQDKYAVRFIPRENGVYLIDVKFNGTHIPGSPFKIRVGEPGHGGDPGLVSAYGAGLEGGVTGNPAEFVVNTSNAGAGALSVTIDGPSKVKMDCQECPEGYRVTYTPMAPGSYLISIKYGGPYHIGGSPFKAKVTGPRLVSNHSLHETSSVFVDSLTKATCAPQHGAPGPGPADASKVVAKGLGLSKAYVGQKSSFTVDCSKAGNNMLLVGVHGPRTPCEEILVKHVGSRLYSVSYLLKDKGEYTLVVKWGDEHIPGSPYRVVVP

PIF-resin (PIF15 affinity ligand on agarose) (peptide)
Ave (Filamin-A (human)): 5 | Inject 1 (Filamin-A (human)): 5 | Ave [1]: 1 | Inject 2 [1]: 0 | Inject 3 [1]: 1
